The target in this assay is T1, TERT (telomerase reverse transcriptase), catalytic subunit of telomerase (human, UniProt O14746 1-1132).
T1 construct: also called human TERT
Nature of the assay: co-expression in HEK293T cells, immunoprecipitation with anti-HA antibody, Western blotting with anti-TERT antibody (FIG. 3). The protocol: After culturing 4×10⁵ HEK293T cells at 37° C. overnight under the atomosphere of 5% CO₂ (in a dish with 60 mm diameter), 2 μg of the expression plasmid of HA-tagged MAPKAPK3 or pcDNA3.1 (+) as a negative control was transfected together with 2 μg of TERT expression plasmid using FuGENE6 Transfection Reagent (Roche). After 2 days of culturing, cells were washed with ice-cold phosphate buffered physiologically saline (PBS (−)), collected and suspended in 500 μl of cell lysis buffer (20 mM Tris-HCl, pH7.4/150 mM NaCl/1 mM ethylenediaminetetraacetic acid (EDTA)/2.5 mM sodium pyrophsphate)/1 mM β-glycerophsphate/1 mM Na₃VO₄/protease inhibitor cocktail), and left to stand on ice for 10 minutes. Subsequently, centrifugation was conducted at 4° C. for 10 minutes at 14,000 rpm to collect the supernatant for use as a cell lysate. Then, 10 μl of agarose-conjugated normal rabbit IgG (Sigma) was added to 500 μl of the cell lysate and subjected to overturned mixing at 4° C. for 30 minutes, followed by subjecting to centrifugation to collect the supernatant. 10 μl of agarose-conjugated anti-HA antibody (Y11, SantaCruz) was added to the collected supernatant, and subjected to overturned mixing at 4° C. overnight, followed by subjecting to centrifugation to collect the agarose beads. […] Subsequently, the binding protein was detected by Western blotting using an anti-TERT antibody (L-20, SantaCruz). […]

T1 sequence (O14746 whole entry): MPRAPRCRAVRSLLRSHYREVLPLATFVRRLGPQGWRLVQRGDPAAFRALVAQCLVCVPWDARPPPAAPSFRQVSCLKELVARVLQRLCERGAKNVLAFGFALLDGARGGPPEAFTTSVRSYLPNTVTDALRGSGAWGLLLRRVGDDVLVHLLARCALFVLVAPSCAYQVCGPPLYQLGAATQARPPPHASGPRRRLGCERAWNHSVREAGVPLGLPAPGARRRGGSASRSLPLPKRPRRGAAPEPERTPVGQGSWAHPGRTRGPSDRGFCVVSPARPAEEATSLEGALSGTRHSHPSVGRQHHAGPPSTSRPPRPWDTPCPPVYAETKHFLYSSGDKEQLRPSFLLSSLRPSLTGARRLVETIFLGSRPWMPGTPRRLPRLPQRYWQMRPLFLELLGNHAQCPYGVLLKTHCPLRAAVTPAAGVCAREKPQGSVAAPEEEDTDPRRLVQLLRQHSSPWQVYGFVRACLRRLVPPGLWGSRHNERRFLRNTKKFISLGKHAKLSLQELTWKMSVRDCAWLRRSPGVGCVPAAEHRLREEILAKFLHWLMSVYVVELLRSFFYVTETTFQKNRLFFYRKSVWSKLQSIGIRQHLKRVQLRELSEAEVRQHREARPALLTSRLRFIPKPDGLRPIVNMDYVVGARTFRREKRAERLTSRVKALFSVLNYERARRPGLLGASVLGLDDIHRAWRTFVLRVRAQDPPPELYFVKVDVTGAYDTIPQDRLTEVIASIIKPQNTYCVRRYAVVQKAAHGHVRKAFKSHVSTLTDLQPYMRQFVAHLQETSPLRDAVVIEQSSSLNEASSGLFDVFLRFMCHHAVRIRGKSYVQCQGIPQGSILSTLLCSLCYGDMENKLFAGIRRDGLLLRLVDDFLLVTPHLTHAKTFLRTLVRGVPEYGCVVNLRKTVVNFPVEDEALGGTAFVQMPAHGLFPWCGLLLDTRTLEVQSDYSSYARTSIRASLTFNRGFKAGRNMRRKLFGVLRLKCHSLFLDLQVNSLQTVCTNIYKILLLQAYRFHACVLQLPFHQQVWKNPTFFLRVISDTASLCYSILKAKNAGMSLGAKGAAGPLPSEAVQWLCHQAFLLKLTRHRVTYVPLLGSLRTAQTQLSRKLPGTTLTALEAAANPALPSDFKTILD

B1: N-terminal HA-tagged MAPKAPK3 (enzyme)
chain: MDGETAEEQGGPVPPPVAPGGPGLGGAPGGRREPKKYAVTDDYQLSKQVLGLGVNGKVLECFHRRTGQKCALKLLYDSPKARQEVDHHWQASGGPHIVCILDVYENMHHGKRCLLIIMECMEGGELFSRIQERGDQAFTEREAAEIMRDIGTAIQFLHSHNIAHRDVKPENLLYTSKEKDAVLKLTDFGFAKETTQNALQTPCYTPYYVAPEVLGPEKYDKSCDMWSLGVIMYILLCGFPPFYSNTGQAISPGMKRRIRLGQYGFPNPEWSEVSEDAKQLIRLLLKTDPTERLTITQFMNHPWINQSMVVPQTPLHTARVLQEDKDHWDEVKEEMTSALATMRVDYDQVKIKDLKTSNNRLLNKRRKKQAGSSSASQGCNNQ
notes: Expressed in HEK293T cells from pcDNA3.1(+); also called HA-MAPKAPK3; not shown: HA-tag at the N-terminus
As for B1, the binding result is given as “binds”.

Source of the values: patent publication US20070105796A1 (published 2007).
